Laboratory results published in US20220073617A1 (Five Prime, published 2022).
Several values for one entry are separate records, joined by “and”; a condition that tells them apart may be missing. Equal values may be shown once.

Tests used:
[1] = target: T1, monovalent hVISTA-ECD (human VISTA extracellular domain with His tail) (human, UniProt Q9H7M9 33-193); experiment: SPR
T1 construct: analyte flowed over captured antibody; also called huVISTA-His
Procedure: (§1) Binding of several preparations of each of the '029 progeny clones and of the parent '029 antibodies, formatted as IgG1.3 antibodies, to human VISTA at pH 6.0 and 7.4 was measured by Surface plasmon resonance (SPR). SPR analysis was performed to measure koff and KD binding affinity measurements for VISTA Abs at acidic and neutral pHs using a Biacore® T100 instrument (GE Healthcare). Protein A (ThermoFisher Scientific catalog #21181) was diluted to 20 ug/ml in 10 mM sodium acetate pH 4.5 and immobilized onto flow cells of a CM5 biosensor following the manufacturer's amine coupling protocol (GE Healthcare), targeting 2,000 RU immobilization density of Protein A per flow cell. SPR experiments were conducted at 37° C. using PBST (137 mM sodium chloride, 2.7 mM potassium chloride, 10 mM phosphate buffer, 0.05% Tween® 20) running buffer at pH 7.4 and 6.0. Antibodies were diluted to 25 nM in PBST pH 7.4, and were captured across active biosensor flow cells at 5 ul/min for 60 seconds. […] Two 15 second injections of 10 mM glycine pH 1.5 were used to regenerate the Protein A capture surface between assay cycles. Rate constants ka (kₒₙ) and kd (koff) were derived from reference flow cell and 0 nM blank-subtracted sensorgrams, and were fit to a 1:1 binding model in Biacore® T200 Evaluation Software v.2.0. The affinity constant, KD was calculated as the ratio of rate constants koff/kₒₙ for each VISTA antibody. […]

[2] = target: T1, monovalent hVISTA-ECD (human VISTA …); experiment: SPR; remark: listed apart in the source
Procedure: (§2) Binding of several preparations of each of the '029 progeny clones and of the parent '029 antibodies, formatted as IgG1.3 antibodies, to human VISTA at pH 6.0 and 7.4 was measured by Surface plasmon resonance (SPR). SPR analysis was performed to measure koff and KD binding affinity measurements for VISTA Abs at acidic and neutral pHs using a Biacore® T100 instrument (GE Healthcare). Protein A (ThermoFisher Scientific catalog #21181) was diluted to 20 ug/ml in 10 mM sodium acetate pH 4.5 and immobilized onto flow cells of a CM5 biosensor following the manufacturer's amine coupling protocol (GE Healthcare), targeting 2,000 RU immobilization density of Protein A per flow cell. SPR experiments were conducted at 37° C. using PBST (137 mM sodium chloride, 2.7 mM potassium chloride, 10 mM phosphate buffer, 0.05% Tween® 20) running buffer at pH 7.4 and 6.0. Antibodies were diluted to 25 nM in PBST pH 7.4, and were captured across active biosensor flow cells at 5 ul/min for 60 seconds. […] Two 15 second injections of 10 mM glycine pH 1.5 were used to regenerate the Protein A capture surface between assay cycles. Rate constants ka (kₒₙ) and kd (koff) were derived from reference flow cell and 0 nM blank-subtracted sensorgrams, and were fit to a 1:1 binding model in Biacore® T200 Evaluation Software v.2.0. The affinity constant, KD was calculated as the ratio of rate constants koff/kₒₙ for each VISTA antibody.

[3] = target: T1, monovalent hVISTA-ECD (human VISTA …); experiment: SPR, pH 6.0
Procedure: as §1

[4] = target: T1, monovalent hVISTA-ECD (human VISTA …); experiment: SPR, pH 7.4
Procedure: as §1

[5] = target: T1, monovalent hVISTA-ECD (human VISTA …); experiment: SPR, pH 6.0; remark: listed apart in the source
Procedure: as §2

[6] = target: T1, monovalent hVISTA-ECD (human VISTA …); experiment: SPR, pH 7.4; remark: listed apart in the source
Procedure: as §2

[7] = target: T1, monovalent hVISTA-ECD (human VISTA …); experiment: SPR, pH 6.0; remark: listed apart in the source
Procedure: as §2
(§3) This initial campaign led to pH-independent VISTA.4 variants with near equivalent koff at pH 6 and pH 7. In order to obtain an antibody that binds to hVISTA with high affinity at pH 6.0 and low affinity at pH 7.0, a new library based on consensus sequence of pH-independent VISTA.4 variants was designed and constructed, with amino acid residues in the loops substituted for charge amino acid residues (see Example 9), and screened via yeast surface display (see Example 9). The library was analyzed as previously described (see Example 9) and selected variants were reformatted as IgG1.3 for further analysis (Tables 26 and 27). SPR analysis was conducted on these variants using the conditions previously described in Example 9.

[8] = target: T1, monovalent hVISTA-ECD (human VISTA …); experiment: SPR, pH 7.4; remark: listed apart in the source
Procedure: as §2, §3

[9] = target: T1, monovalent hVISTA-ECD (human VISTA …); experiment: SPR, pH 6.0, average
Procedure: as §1

T1 sequence (Q9H7M9 other isoform, or with tags, fused parts or gaps limits assumed): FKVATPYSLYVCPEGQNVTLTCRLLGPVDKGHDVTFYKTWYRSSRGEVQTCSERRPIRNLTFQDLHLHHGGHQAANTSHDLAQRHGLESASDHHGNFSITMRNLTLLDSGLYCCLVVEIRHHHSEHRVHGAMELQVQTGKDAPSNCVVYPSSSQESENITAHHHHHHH

| pH 6.0/7.4 KD [2] | pH 6.0/7.4 kd [2] | Kd [3] | koff [3] | kon [3] | koff [4] | Kd [5] [nM] | kd improvement vs parent [5] [fold] | koff [5] [s⁻¹] | kon [5] [M⁻¹ s⁻¹] | Kd [6] [nM] | kd improvement vs parent [6] [fold] | koff [6] [s⁻¹] | kon [6] [M⁻¹ s⁻¹] | Kd [7] [nM] | koff [7] [s⁻¹] | kon [7] [M⁻¹ s⁻¹] | Kd [8] [nM] | koff [8] [s⁻¹] | kon [8] [M⁻¹ s⁻¹] | Binder | further results |
| --- | --- | --- | --- | --- | --- | --- | --- | --- | --- | --- | --- | --- | --- | --- | --- | --- | --- | --- | --- | --- | --- |
| 0.2 | 1.1 | 0.172 nM | 0.000603 s⁻¹ | 3.52e+06 M⁻¹ s⁻¹ | 0.000285 s⁻¹ | 0.12 | 294 | 0.00036 | 2.9e+06 | 0.76 | 2.7 | 0.00033 | 440000 | 0.21 | 0.00051 | 2.4e+06 | 0.72 | 0.00032 | 450000 | P1-065326 (41F11_VH_D31E/Y50W/S55E/L96E/Y100E VK_A64G) (antibody, V domains shown, Kabat positions; also called P1-065326-1) VH: QVQLVESGGGLVKPGGSLRLSCAASGFTFSEYYMSWIRQAPGKGLEWVSWISNSGEPIYYADSVKGRFTISRDNAKNSLYLQMNSLRAEDTAVYYCARDEPGWEFDLWGRGTLVTVSS VL: EIVLTQSPATLSLSPGERATLSCRASQSVSSYLAWYQQKPGQAPRLLIYDASNRATGIPARFSGSGSGTDFTLTISSLEPEDFAVYYCQQRNNWPRTFGQGTKVEIK | KD ratio (pH 7.4/pH 6.0) [1]: 5.73; Kd [4]: 0.986 nM; kon [4]: 289000 M⁻¹ s⁻¹ |
| 0.6 | 4.8 | 2.51 nM | 0.00312 s⁻¹ | 1.24e+06 M⁻¹ s⁻¹ | 0.000527 s⁻¹ | 2.6 | 35 | 0.0031 | 1.2e+06 | 4.1 | 1.4 | 0.00064 | 150000 | 4.8 | 0.0036 | 750000 | 3.4 | 0.00039 | 110000 | P1-064510 (41F11_Vk_A25E/V29D/A64G/R91T) (antibody, V domains shown, also called P1-064510-1) VH: QVQLVESGGGLVKPGGSLRLSCAASGFTFSDYYMSWIRQAPGKGLEWVSYISNSGSPIYYADSVKGRFTISRDNAKNSLYLQMNSLRAEDTAVYYCARDLPGWYFDLWGRGTLVTVSS VL: EIVLTQSPATLSLSPGERATLSCRESQSDSSYLAWYQQKPGQAPRLLIYDASNRATGIPARFSGSGSGTDFTLTISSLEPEDFAVYYCQQTNNWPRTFGQGTKVEIK | KD ratio (pH 7.4/pH 6.0) [1]: 33.8; Kd [4]: 84.8 nM; kon [4]: 6220 M⁻¹ s⁻¹ |

Further lines, the binder ahead of its results:

| Binder | pH 6.0/7.4 KD [2] | pH 6.0/7.4 kd [2] | Kd [3] | koff [3] | kon [3] | koff [4] | Kd [5] [nM] | kd improvement vs parent [5] [fold] | koff [5] [s⁻¹] | kon [5] [M⁻¹ s⁻¹] | Kd [6] [nM] | kd improvement vs parent [6] [fold] | koff [6] [s⁻¹] | kon [6] [M⁻¹ s⁻¹] | Kd [7] [nM] | koff [7] [s⁻¹] | kon [7] [M⁻¹ s⁻¹] | Kd [8] [nM] | koff [8] [s⁻¹] | kon [8] [M⁻¹ s⁻¹] | further results |
| --- | --- | --- | --- | --- | --- | --- | --- | --- | --- | --- | --- | --- | --- | --- | --- | --- | --- | --- | --- | --- | --- |
| P1-061528 (41F11 NGS mut VK_A64G/R91A) (antibody, V domains shown, also called P1-061528-2) VH: QVQLVESGGGLVKPGGSLRLSCAASGFTFSDYYMSWIRQAPGKGLEWVSYISNSGSPIYYADSVKGRFTISRDNAKNSLYLQMNSLRAEDTAVYYCARDLPGWYFDLWGRGTLVTVSS VL: EIVLTQSPATLSLSPGERATLSCRASQSVSSYLAWYQQKPGQAPRLLIYDASNRATGIPARFSGSGSGTDFTLTISSLEPEDFAVYYCQQANNWPRTFGQGTKVEIK | 3.3 | 12 | 3.86 nM | 0.00237 s⁻¹ | 616000 M⁻¹ s⁻¹ | 0.00019 s⁻¹ | 4.7 | 51.4 | 0.0021 | 450000 | 1.4 | 5.1 | 0.00017 | 120000 | – | – | – | – | – | – | KD ratio (pH 7.4/pH 6.0) [1]: 7.88; Kd [4]: 30.4 nM; kon [4]: 6260 M⁻¹ s⁻¹ |
| P1-064490 (41F11_VH_F27EY50EL96E) (antibody, V domains shown, Kabat positions; also called P1-064490-1; P1-064490-2) VH: QVQLVESGGGLVKPGGSLRLSCAASGETFSDYYMSWIRQAPGKGLEWVSEISNSGSPIYYADSVKGRFTISRDNAKNSLYLQMNSLRAEDTAVYYCARDEPGWYFDLWGRGTLVTVSS VL: EIVLTQSPATLSLSPGERATLSCRASQSVSSYLAWYQQKPGQAPRLLIYDASNRATGIPARFSASGSGTDFTLTISSLEPEDFAVYYCQQRNNWPRTFGQGTKVEIK | 0.3 | 4 | 34.8 nM and 31.4 nM | 0.00726 s⁻¹ and 0.00818 s⁻¹ | 209000 M⁻¹ s⁻¹ and 260000 M⁻¹ s⁻¹ | 0.00266 s⁻¹ and 0.0023 s⁻¹ | 22 | 8.2 | 0.013 | 600000 | 75 | 0.3 | 0.0032 | 43000 | – | – | – | – | – | – | – |
| P1-064392 (41F11_HC_Mutant: D31E/Y50W/S55E/Y100E 41F11_LC_Mutant: V29D/A64G/Q89E/R91T) (antibody, V domains shown, Kabat positions; also called P1-064392-1) VH: QVQLVESGGGLVKPGGSLRLSCAASGFTFSEYYMSWIRQAPGKGLEWVSWISNSGEPIYYADSVKGRFTISRDNAKNSLYLQMNSLRAEDTAVYYCARDLPGWEFDLWGRGTLVTVSS VL: EIVLTQSPATLSLSPGERATLSCRASQSDSSYLAWYQQKPGQAPRLLIYDASNRATGIPARFSGSGSGTDFTLTISSLEPEDFAVYYCEQTNNWPRTFGQGTKVEIK | 0.1 | 1.2 | – | – | – | – | 1.8 | 12.4 | 0.0086 | 4.8e+06 | 15 | 0.1 | 0.007 | 470000 | 1.6 | 0.012 | 7.7e+06 | 11 | 0.0078 | 770000 | – |
| P1-064391 (41F11_HC_Mutant: D31E/Y50W/S55E/Y100E 41F11_LC_Mutant: V29D/A64G/R91T) (antibody, V domains shown, Kabat positions; also called P1-064391-1) VH: QVQLVESGGGLVKPGGSLRLSCAASGFTFSEYYMSWIRQAPGKGLEWVSWISNSGEPIYYADSVKGRFTISRDNAKNSLYLQMNSLRAEDTAVYYCARDLPGWEFDLWGRGTLVTVSS VL: EIVLTQSPATLSLSPGERATLSCRASQSDSSYLAWYQQKPGQAPRLLIYDASNRATGIPARFSGSGSGTDFTLTISSLEPEDFAVYYCQQTNNWPRTFGQGTKVEIK | 0.2 | 2.1 | – | – | – | – | 6.4 | 3.3 | 0.033 | 5.1e+06 | 37 | 0.1 | 0.016 | 430000 | 10 | 0.027 | 2.7e+06 | 31 | 0.019 | 630000 | – |
| P1-071799 (P1-070976_H95D) (antibody, human IgG1, kappa, V domains shown, IgG1.3) VH: QVQLVESGGGLVKPGGSLRLSCAASGFPFSDYYMSWIRQAPGKGLEWVSWISNSGEPIYYADSVKGRFTISRDNAKNSLYLQMNSLRAEDTAVYYCARDEEGWEFDLWGRGTLVTVSS VL: EIVLTQSPATLSLSPGERATLSCRASQSVSSYLAWYQQKPGQAPRLLIYDASNRATGIPARFSGSGSGTDFTLTISSLEPEDFAVYYCQQRNNWPRTFGQGTKVEIKR | – | – | – | – | – | – | – | – | – | – | – | – | – | – | – | – | – | – | – | – | Kd [9]: 15 nM; koff [9]: 0.027 s⁻¹; kon [9]: 1.7e+06 M⁻¹ s⁻¹ |
